Results on three molecules are retold here after paper doi:10.1101/2025.08.11.669711 (2025).

One assay addresses T1, UCH37•RPN13^DEUBAD (UniProt Q16186 253-407).
T1 chain 1: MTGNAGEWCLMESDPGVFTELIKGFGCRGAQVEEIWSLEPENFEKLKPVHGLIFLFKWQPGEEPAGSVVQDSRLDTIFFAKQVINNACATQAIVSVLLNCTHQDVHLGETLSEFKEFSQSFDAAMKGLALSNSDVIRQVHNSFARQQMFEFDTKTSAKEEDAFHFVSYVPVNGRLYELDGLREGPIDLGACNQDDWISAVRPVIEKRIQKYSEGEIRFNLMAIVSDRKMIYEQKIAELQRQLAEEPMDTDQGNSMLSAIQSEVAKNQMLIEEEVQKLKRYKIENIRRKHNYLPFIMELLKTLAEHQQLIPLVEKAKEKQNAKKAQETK
T1 chain 2: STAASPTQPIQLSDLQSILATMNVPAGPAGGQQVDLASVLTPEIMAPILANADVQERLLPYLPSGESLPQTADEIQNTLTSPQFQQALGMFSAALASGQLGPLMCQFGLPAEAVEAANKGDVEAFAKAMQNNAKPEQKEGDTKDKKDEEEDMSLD
Description: MST.

Another assay concerns the target T2, UCH37.
T2 chain: T1 chain 1
Description: SPR. Background: Surface plasmon resonance follows binding to a sensor surface in real time, without labels.

Positions count from the first letter of the chain named.

B1: Nb-cS1 (His-tagged) (VHH)
VHH: QVQLQESGGGLVQAGGSLRLSCAASGYISRPRTMGWYRQAPGKEREFVAIISNGAITNYADSVKGRFTISRDNAKNTVYLQMNSLKPEDTAVYYCAAGRNIWHAYWGQGTQVTVSS
As to B1, the Kd with UCH37•RPN13^DEUBAD is 199 nM.

B2: Nb-ncS1 (His-tagged) (VHH)
VHH: RVQLQESGGGLVQAGGSLRLSCAASGYIFRSYRMGWYRQAPGKERELVAAIGLGGNTYYADSVKGRFTISRDNAKNTVYQQMNSLKPEDTAVYYCAALYGKPPAFSPFPYWGQGTQVTVSS
Consider B2, for which, in the assay with UCH37, the koff amounted to 3.9e-05 s⁻¹.

B3: Nb-v1 (recombinant) (VHH)
VHH: B2 VHH with R1Q, Q80L, Y99H, P109A
In the assay with UCH37, B3 showed a koff of 0.00013 s⁻¹.

Broadly, the Kd is the constant that tells how readily two partners part at equilibrium. Low values mean higher affinity, high ones lower affinity. As usually defined, the koff is the first-order rate constant of dissociation.
